Laboratory results published in patent publication US20250163127A1.

B1: CD80 variant A26E/Q33L/E35D/M47L IgV-Fc (Fc fusion)
chain: VIHVTKEVKEVATLSCGHNVSVEELEQTRIYWLKDKKMVLTMMSGDLNIWPEYKNRTIFDITNNLSIVILALRPSDEGTYECVVLKYEKDAFKREHLAEVT
B2: CD80 variant Q33L/E35D/M47I/L85Q IgV-Fc (Fc fusion)
chain: VIHVTKEVKEVATLSCGHNVSVEELAQTRIYWLKDKKMVLTMMSGDINIWPEYKNRTIFDITNNLSIVILALRPSDEGTYECVVQKYEKDAFKREHLAEVT
B3: CD80 variant Q33K/E35D/D46V/L85Q IgV-Fc (Fc fusion)
chain: VIHVTKEVKEVATLSCGHNVSVEELAQTRIYWKKDKKMVLTMMSGVMNIWPEYKNRTIFDITNNLSIVILALRPSDEGTYECVVQKYEKDAFKREHLAEVT
B4: CD80 variant Q33L/E35D/M43I/L85Q/R94W IgV-Fc (Fc fusion)
chain: VIHVTKEVKEVATLSCGHNVSVEELAQTRIYWLKDKKMVLTMISGDMNIWPEYKNRTIFDITNNLSIVILALRPSDEGTYECVVQKYEKDAFKWEHLAEVT
B5: CD80 variant E7D/E35D/M47I/L97Q IgV-Fc (Fc fusion)
chain: VIHVTKDVKEVATLSCGHNVSVEELAQTRIYWQKDKKMVLTMMSGDINIWPEYKNRTIFDITNNLSIVILALRPSDEGTYECVVLKYEKDAFKREHQAEVT
B6: CD80 variant Q33L/E35D/M47I/T62N/L85Q IgV-Fc (Fc fusion)
chain: VIHVTKEVKEVATLSCGHNVSVEELAQTRIYWLKDKKMVLTMMSGDINIWPEYKNRTIFDINNNLSIVILALRPSDEGTYECVVQKYEKDAFKREHLAEVT
B7: CD80 variant Y31S/E35D/M47L/T79L/E88G IgV-Fc (Fc fusion)
chain: VIHVTKEVKEVATLSCGHNVSVEELAQTRISWQKDKKMVLTMMSGDLNIWPEYKNRTIFDITNNLSIVILALRPSDEGLYECVVLKYGKDAFKREHLAEVT
B8: CD80 variant A26E/E35D/M43T/M47L/L85Q/R94Q IgV-Fc (Fc fusion)
chain: VIHVTKEVKEVATLSCGHNVSVEELEQTRIYWQKDKKMVLTMTSGDLNIWPEYKNRTIFDITNNLSIVILALRPSDEGTYECVVQKYEKDAFKQEHLAEVT
B9: CD80 variant V22A/R29H/E35D/D46E/M47I IgV-Fc (Fc fusion)
chain: VIHVTKEVKEVATLSCGHNVSAEELAQTHIYWQKDKKMVLTMMSGEINIWPEYKNRTIFDITNNLSIVILALRPSDEGTYECVVLKYEKDAFKREHLAEVT
B10: CD80 variant E35D/M47I/E77A/L85Q/R94W IgV-Fc (Fc fusion)
chain: VIHVTKEVKEVATLSCGHNVSVEELAQTRIYWQKDKKMVLTMMSGDINIWPEYKNRTIFDITNNLSIVILALRPSDAGTYECVVQKYEKDAFKWEHLAEVT
B11: CD80 variant H18Y/V20A/Q33L/E35D/M47V/Y53F IgV-Fc (Fc fusion)
chain: VIHVTKEVKEVATLSCGYNASVEELAQTRIYWLKDKKMVLTMMSGDVNIWPEFKNRTIFDITNNLSIVILALRPSDEGTYECVVLKYEKDAFKREHLAEVT
B12: CD80 variant H18Y/E35D/M47L IgV-Fc (Fc fusion)
chain: VIHVTKEVKEVATLSCGYNVSVEELAQTRIYWQKDKKMVLTMMSGDLNIWPEYKNRTIFDITNNLSIVILALRPSDEGTYECVVLKYEKDAFKREHLAEVT
B13: CD80 variant H18Y/E35D/V68M/L97Q IgV-Fc (Fc fusion)
chain: VIHVTKEVKEVATLSCGYNVSVEELAQTRIYWQKDKKMVLTMMSGDMNIWPEYKNRTIFDITNNLSIMILALRPSDEGTYECVVLKYEKDAFKREHQAEVT
B14: CD80 variant V22A/E35D/V68E/A71D IgV-Fc (Fc fusion)
chain: VIHVTKEVKEVATLSCGHNVSAEELAQTRIYWQKDKKMVLTMMSGDMNIWPEYKNRTIFDITNNLSIEILDLRPSDEGTYECVVLKYEKDAFKREHLAEVT
B15: CD80 variant H18Y/Q33L/E35D/M47I IgV-Fc (Fc fusion)
chain: VIHVTKEVKEVATLSCGYNVSVEELAQTRIYWLKDKKMVLTMMSGDINIWPEYKNRTIFDITNNLSIVILALRPSDEGTYECVVLKYEKDAFKREHLAEVT
B16: CD80 variant Q33L/E35D/T41S/M43I IgV-Fc (Fc fusion)
chain: VIHVTKEVKEVATLSCGHNVSVEELAQTRIYWLKDKKMVLSMISGDMNIWPEYKNRTIFDITNNLSIVILALRPSDEGTYECVVLKYEKDAFKREHLAEVT
B17: CD80 variant H18Y/A26E/Q33L/E35D/M47L/L85Q IgV-Fc (Fc fusion)
chain: VIHVTKEVKEVATLSCGYNVSVEELEQTRIYWLKDKKMVLTMMSGDLNIWPEYKNRTIFDITNNLSIVILALRPSDEGTYECVVQKYEKDAFKREHLAEVT
B18: CD80 variant Q33L/E35D/T41S/M47V IgV-Fc (Fc fusion)
chain: VIHVTKEVKEVATLSCGHNVSVEELAQTRIYWLKDKKMVLSMMSGDVNIWPEYKNRTIFDITNNLSIVILALRPSDEGTYECVVLKYEKDAFKREHLAEVT
B19: CD80 variant Q33L/E35D/M47I IgV-Fc (Fc fusion)
chain: VIHVTKEVKEVATLSCGHNVSVEELAQTRIYWLKDKKMVLTMMSGDINIWPEYKNRTIFDITNNLSIVILALRPSDEGTYECVVLKYEKDAFKREHLAEVT
B20: CD80 variant H18L/V22A/E35D/M47L/N48T/L85Q IgV-Fc (Fc fusion)
chain: VIHVTKEVKEVATLSCGLNVSAEELAQTRIYWQKDKKMVLTMMSGDLTIWPEYKNRTIFDITNNLSIVILALRPSDEGTYECVVQKYEKDAFKREHLAEVT
B21: CD80 variant Q33L/E35D/M47L/A71G/F92S IgV-Fc (Fc fusion)
chain: VIHVTKEVKEVATLSCGHNVSVEELAQTRIYWLKDKKMVLTMMSGDLNIWPEYKNRTIFDITNNLSIVILGLRPSDEGTYECVVLKYEKDASKREHLAEVT
B22: CD80 variant Q27H/Q33L/E35D/M47V/N55D/L85Q/K89N IgV-Fc (Fc fusion)
chain: VIHVTKEVKEVATLSCGHNVSVEELAHTRIYWLKDKKMVLTMMSGDVNIWPEYKDRTIFDITNNLSIVILALRPSDEGTYECVVQKYENDAFKREHLAEVT
B23: CD80 variant Q33L/E35D/M47V/L85Q IgV-Fc (Fc fusion)
chain: VIHVTKEVKEVATLSCGHNVSVEELAQTRIYWLKDKKMVLTMMSGDVNIWPEYKNRTIFDITNNLSIVILALRPSDEGTYECVVQKYEKDAFKREHLAEVT
B24: CD80 variant V22A/E23D/Q33L/E35D/M47V IgV-Fc (Fc fusion)
chain: VIHVTKEVKEVATLSCGHNVSADELAQTRIYWLKDKKMVLTMMSGDVNIWPEYKNRTIFDITNNLSIVILALRPSDEGTYECVVLKYEKDAFKREHLAEVT

How the values were obtained:
CTLA4 (human) = assay: flow cytometry, CHO cells stably expressing CTLA4
PD-L1 (human) = assay: flow cytometry, CHO cells stably expressing PD-L1
CD28 (human) = CD28 (human) (UniProt P10747); assay: flow cytometry, Jurkat cells (CD28)

CTLA4 (human), sequence (chain, as listed by the source): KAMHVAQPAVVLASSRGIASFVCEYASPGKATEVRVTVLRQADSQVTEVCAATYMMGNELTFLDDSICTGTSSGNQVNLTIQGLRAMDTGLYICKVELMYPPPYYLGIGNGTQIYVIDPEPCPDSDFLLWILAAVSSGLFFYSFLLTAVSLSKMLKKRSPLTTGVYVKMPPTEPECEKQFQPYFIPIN
PD-L1 (human), sequence (chain, as listed by the source): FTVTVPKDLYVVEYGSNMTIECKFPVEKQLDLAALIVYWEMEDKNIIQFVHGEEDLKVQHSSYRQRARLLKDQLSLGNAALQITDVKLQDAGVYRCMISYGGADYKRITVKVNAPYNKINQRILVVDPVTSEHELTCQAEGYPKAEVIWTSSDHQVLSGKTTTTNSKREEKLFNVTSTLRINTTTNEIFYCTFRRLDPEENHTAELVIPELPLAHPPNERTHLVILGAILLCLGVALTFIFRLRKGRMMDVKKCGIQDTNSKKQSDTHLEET

Binder | Fold change to WT CD80 (CTLA4 (human)) [fold] | MFI at 33.3 nM (CTLA4 (human)) [MFI] | Fold change to WT (PD-L1 (human)) [fold] | MFI at 33.3 nM (PD-L1 (human)) [MFI] | Fold change to WT (CD28 (human)) [fold] | MFI at 33.3 nM (CD28 (human)) [MFI]
B1 | 0.01 | 1320 | 7.67 | 60900 | 0.04 | 271
B2 | 0.11 | 20500 | 8.05 | 63900 | 0.04 | 287
B3 | 0.05 | 8510 | 3.36 | 26700 | 0.03 | 257
B4 | 0.01 | 1080 | 3.65 | 29000 | 0.04 | 272
B5 | 1.52 | 271000 | 1.84 | 14600 | 0.04 | 273
B6 | 0.01 | 1660 | 9.14 | 72600 | 0.04 | 284
B7 | 0.01 | 1100 | 4.9 | 38900 | 0.04 | 278
B8 | 1.56 | 278000 | 8.57 | 68100 | 0.03 | 260
B9 | 0.43 | 77400 | 3.2 | 25400 | 0.04 | 323
B10 | 1.38 | 247000 | 8.12 | 64500 | 0.04 | 272
B11 | 0.02 | 2880 | 15.2 | 121000 | 0.03 | 260
B12 | 1.59 | 284000 | 5.56 | 44200 | 0.66 | 5070
B13 | 0.97 | 173000 | 15.3 | 122000 | 0.04 | 299
B14 | 2.45 | 437000 | 0.17 | 1350 | 1.83 | 14000
B15 | 0.03 | 5540 | 6.02 | 47800 | 0.04 | 295
B16 | 0.04 | 6390 | 5.66 | 44900 | 0.06 | 433
B17 | 0.01 | 2090 | 9.64 | 76600 | 0.04 | 272
B18 | 0.08 | 14500 | 5.52 | 43800 | 0.04 | 287
B19 | 0.09 | 15900 | 4.7 | 37400 | 0.04 | 282
B20 | 2.09 | 374000 | 12.3 | 98100 | 0.06 | 434
B21 | 0.01 | 2110 | 3.53 | 28000 | 0.05 | 366
B22 | 0.31 | 56100 | 1.86 | 14800 | 0.04 | 269
B23 | 0.42 | 75400 | 5.97 | 47400 | 0.04 | 268
B24 | 0.02 | 3640 | 9.51 | 75500 | 0.04 | 274
